Data as given in paper PMC9425029, “Secretagogin is a Ca^2+-dependent stress-responsive chaperone that may also play a role in aggregation-based proteinopathies” (The Journal of Biological Chemistry, 2022).

Target: the molecule itself
Assay: SAXS; oxidizing conditions (100 μM H2O2), SCGN about 5-15 mg/ml, without or with 8 mM Ca2+; 50 mM Tris pH 7.5, 100 mM KCl

B1: Secretagogin (mouse SCGN) (natural protein, UniProt Q91WD9 1-276, looked up)
chain: MDNARRKTPARLDAACFWQIWQRFDKEEKGYIRETELDAFFDHLLAKSGTEDTLMEENVQKVKEQLMTSHNVSKEGRILMKELASMFLSEDENFLLFFRLETPLDNSVEFMQIWRKYDADSSGFISAAELCNFLRDLFLHHKKNISEAELEEYTSTMMKIFDKNKDGRLDLNDLARILALQENFLLQFKMDASSTEERKRDFEKIFAHYDVSKTGALEGPEVDGFVKDMMELVQPSISGVDLDKFREILLRHCDVNKDGKIQKSELALCLGLKINP
notes: secretagogin, mouse, cloned in pET21b; Used Ca2+-free (apo) or with Ca2+ (holo); the assays tell them apart; also called apo-SCGN; holo-SCGN; source: E. coli BL21-DE3 (pET21b), purified (Ni-NTA-Sepharose, size-exclusion chromatography), decalcified with EDTA
  binding result: binds
